Measured values as given in patent US20240173377A1 (EPIVAX, published 2024).

What was measured:
Test in all cases: competition HLA binding assay: soluble HLA, labeled control peptide, capture on anti-human DR antibody, time-resolved fluorescence
HLA DRB1*0301 = biological target: T1, HLA DRB1*0301 (human)
T1 construct: Described only as a soluble HLA molecule; also called soluble HLA molecule

HLA DRB1*0101 = biological target: T2, HLA DRB1*0101 (human)
T2 construct: Described only as a soluble HLA molecule; also called soluble HLA molecule

HLA DRB1*0701 = biological target: T3, HLA DRB1*0701 (human)
T3 construct: Described only as a soluble HLA molecule; also called soluble HLA molecule

HLA DRB1*1101 = biological target: T4, HLA DRB1*1101 (human)
T4 construct: Described only as a soluble HLA molecule; also called soluble HLA molecule

HLA DRB1*0401 = biological target: T5, HLA DRB1*0401 (human)
T5 construct: Described only as a soluble HLA molecule; also called soluble HLA molecule

HLA DRB1*1301 = biological target: T6, HLA DRB1*1301 (human)
T6 construct: Described only as a soluble HLA molecule; also called soluble HLA molecule

Measured: binding result

B1: SEQ ID NO 114 (peptide)
peptide: EEQYNSTYTVVSVLTVLHQD
notes: L-amino acid Tregitope, assayed alongside its retro-inverso counterpart
binds: all assays above

B2: SEQ ID NO 115 (peptide)
peptide: ILTIHFTGHSFIYGK
notes: as for B1
binds: all assays above
